Here are results for one molecule from patent US20230001007A1, “Glycan-Interacting Compounds and Methods of Use” (Seagen Inc., priority 2017, published 2023).

The test system of experiment [1] is MDA-MB-231 cells transfected for enhanced expression of STn (STn positive cells). The experiment is described as follows: ADC cytotoxicity assay ([…]-GLO). The experiment is classed as cell-based. The conditions noted are these: MMAE-conjugated ADC versions; 72 hours; kill of STn positive cells. How it is done:
MMAE-conjugated ADC versions of hSIA101, hSIA102, and hSIA103 were assessed in an ADC cytotoxicity assay using MDA-MB-231 cells (parental or transfected for enhanced expression of STn). Parental cells were grown in Eagle's Minimum Essential Medium (EMEM) supplemented with 10% FBS, lx Pen/Strep and 45 μg/mL gentamycin. STn positive cells were grown in the same media except with the addition of 1 mg/mL G418 for antibiotic selection. Cells were seeded separately (4,000 cells/well for parental cells or 2,000/well for STn positive cells) in 96-well plates using proper media described above. Cells were grown overnight. After 16-20 hours, cells were treated with varying concentrations of test antibodies in triplicate (50 nM to 0.012 nM) for 72 hours. Then, cells were analyzed using an ADC […]-GLO® luminescent cell viability assay kit (Promega, Madison, Wis.) to determine the amount of ATP present, an indicator of metabolically active cells. The assay uses a single reagent that is added directly to the cultured cells in serum-supplemented medium. The reagent lyses the cells and generates a luminescent signal proportional to the amount of ATP present. Luminescent signals were analyzed and used to calculate the half-maximal inhibitory concentration (IC50) values for each antibody used based on the concentration required to kill STn positive cells at half-maximal levels (see Table 9).

Experiment [2] deals with cynomolgus monkey tissues. As to the kind of experiment: Tissue cross-reactivity study, frozen tissue sections. It is filed as binding. Details: key: 1+=weak staining; 2+=moderate staining; 3+=strong staining; 4+=intense staining; Neg=negative; freq=frequent (staining in >75%-100% of cells); occ=occasional (staining in >25%-50% of cells); rare refers to staining in 1-5% of cells. The note with it: Cyno, 1-3 μg/ml. How it is done:
(§1) Tissue cross-reactivity studies were conducted to assess the binding profile (both on- and potential off-target binding) to human and relevant species used in nonclinical safety testing. Humanized anti-STn antibodies were examined for binding to a panel of normal human, rat, mouse, and cynomolgus monkey tissues. The study was conducted on […] normal frozen tissue sections at 1-3 μg/ml: heart, brain, kidney, stomach, lung, small intestines, colon, liver, pancreas, spleen and bone marrow. The positive control was a human pancreatic neoplasm that contained STn positive cancer cells and the negative control was normal stromal cells contained within the same specimen. Staining across all normal tissues was restricted to the cytoplasm. Additional analyses were conducted without primary antibody or using isotype control IgG as negative controls.
(§2) Antibodies were also found to cross react with similar types of tissue from Cynomolgus monkey (see Table 17) and rat (not shown).

The test system of the next experiment is normal human tissues. Described as above. It is filed as binding. On the set-up: key to tissue staining: 1+=weak staining; 2+=moderate staining; 3+=strong staining; 4+=intense staining; Neg=negative; freq=frequent (staining in >75%-100% of cells); occ=occasional (staining in >25%-50% of cells); rare refers to staining in 1-5% of cells. The conditions noted are these: for tissue staining: Human, 1-3 μg/ml. How it is done:
as §1, §2

Where [3] appears, read: Small Intestine Epithelial Cells.

B1: hSIA101 (antibody, V domains shown)
VH: EVQLVQSGAEVKKPGASVKVSCKASGYTFTDHAIHWVRQAPGQGLEWMGYFSPGNDDIKYNEKFRGRVTMTADKSSSTAYMELRSLRSDDTAVYFCKRSLSTPYWGQGTLVTVSS
VL: DIVMTQSPDSLAVSLGERATINCKSSQSLLNRGNHKNYLTWYQQKPGQPPKLLIYWASTRESGVPDRFSGSGSGTDFTLTISSLQAEDVAVYYCQNDYTYPYTFGQGTKVEIK
Consider B1, for which the IC50 in experiment [1] amounted to 5.2 nM. Moreover, the tissue staining entry in experiment [2] (Colon Epithelial Cells) is recorded as “Neg”; in experiment [2] (Colon Vessel) it was 4+ freq (cytoplasm); in experiment [2] (Heart Vessel), “Neg”; in experiment [2] (Lung Epithelium) it was 2-3+ freq (cytoplasm); in experiment [2] (Pancreas Vessel), 2-3+ freq (cytoplasm); in experiment [2] (setting [3]), 3-4+ freq (cytoplasm). In addition, the tissue staining entry in experiment [2] (Spleen Vessel) is recorded as “Neg”; in experiment [2] (Stomach Epithelial Cells), 2-3+ occ (cytoplasm); in experiment [2] (Stomach Vessel), 2+ occ (cytoplasm); with normal human tissues (Colon Epithelial Cells), 1+ freq (cytoplasm); with normal human tissues (Colon Vessel), “Neg”; in the experiment on normal human tissues (Heart Vessel), 2+ rare (cytoplasm). The tissue staining entry with normal human tissues (Lung Epithelium) is recorded as “Neg”; with normal human tissues (Pancreas Vessel), “Neg”; with normal human tissues (setting [3]), 2-4+ freq (cytoplasm); in the experiment on normal human tissues (Spleen Vessel) it was 2-3+ freq (cytoplasm); in the experiment with normal human tissues (Stomach Epithelial Cells), 2-3+ freq (cytoplasm); in the experiment with normal human tissues (Stomach Vessel), “Neg”. For the same molecule, in the experiment with normal human tissues, the “staining of cerebrum, cerebellum, kidney and liver” value is “did not stain”. Also, in the experiment with normal human tissues, the “staining of positive control tissue (pancreatic neoplasm)” value is “strong membrane staining”. Further, the “cross-reactivity with normal human tissues” value in the experiment on normal human tissues (among the three tested antibodies) is reported as “lowest cross-reactivity”. For the same molecule, in the experiment on normal human tissues (normal tissues), the “staining on cell membranes in any tissue” value was “No staining was observed”.
